± gives the half width of the 95% confidence interval.
Legend:
[1] = folding stability dG unfold from chymotrypsin proteolysis; higher = more stable
In short: (§1)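 K50 was inferred by Bayesian fitting of sequencing counts obtained after protease digestion of designed mini-proteins. Unfolding free energy was derived by comparison with a sequence-predicted unfolded-state K50 and a shared folded-state K50, for each protease or both combined. The mini-proteins were under 80 residues, had no cysteine, were carried in a PA-tagged cDNA display construct, and were kept only if AlphaFold2 dimer inter-PAE exceeded 15.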

[2] = folding stability dG unfold (combined trypsin and chymotrypsin); higher = more stable
In short: as §1

| Sequence | folding stability dG unfold [1] [kcal/mol] | folding stability dG unfold [2] [kcal/mol] |
| --- | --- | --- |
| SAGGSAGGSPVRPRTGTVYDPETGARVDVLEYEFPLPDGTPVTVTEVVVTDGDTRTTATLVDPSAGGSAGGS [r12_619_TrMRF] | 0.29 ± 0.014 | -0.263 ± 0.073 |
| SAGGSAEPTGPPDVEVKRSTSVEGGLTLTPVTYTSPDNTETLVITYTTDPAGNLSSTTATVPPDLVSAGGSA [r15_986_JUSTAS] | 0.276 ± 0.36 | -0.00361 ± 0.28 |
| SPEFKIAEVRVEAFPDGTVKAEVRFEGGTETAVFDAPVDPETGVVPVRARIYNPETGEVSEFTATGRIGASA [r9_825_TrMRF] | 0.0658 ± 0.16 | -0.325 ± 0.17 |
| SAGGSAGGSAGKNNKVKLTYTIEVEGEGKPKKIKIEYYLSPNGIPEPPELIKSKAGGLAKSAGGSAGGSAGG [r17_373_TrMRF] | 0.306 ± 0.13 | -0.191 ± 0.21 |
| SMKVLEGEEEAKKLAEEEGVPVIPVPADVSLEEIKKRIKETPGFPPDTVVATVIPKEPGRTTVIVLPLGKSA [r9_314_JUSTAS] | 0.474 ± 0.035 | 0.0112 ± 0.1 |
| SAGTKTIMGRPDDLPEAIEEALDKGPDLKKVKIYWGGREREIPLGDKIKITEPMPNPNGPPFMMIEIEDSAG [r5_130_TrROS] | -0.486 ± 0.38 | < -1 |
| SAGGSAGGSAGGTKELAEALRDAGYEVEYDKATNKIEVRPKPKPKPVVKTVTFVPKEDLSAGGSAGGSAGGS [r10_1173_TrROS_Hall] | -0.433 ± 0.11 | -0.51 ± 0.36 |
| SAGGSAGGSAGGDPDGKPPPKIEFEMETVPIPNPDGQALEIEIFRIKGNGMLFIMIEPYSAGGSAGGSAGGS [r10_1137_TrROS] | 4.21 ± 0.29 | 4.47 ± 0.84 |
| SAGGSAGGSAGGSAPYALVEVLPGGVVVVAYPDGSRRLVEVERDPSSDLWRVLREEDLPSAGGSAGGSAGGS [r4_247_JUSTAS] | 0.688 ± 0.1 | 0.278 ± 0.068 |
| SAGGSAGGSAGGPLLALFDPVPGRVVVVGLRPLPEDSYELDPYVLELDPTTGEAKVRKASAGGSAGGSAGGS [r10_1041_TrMRF] | -0.547 ± 0.42 | -0.852 ± 0.59 |
| SAGGSAGGSAGGMPPEETVTVTIVESKPVPDPEGNPVEPLPVKTTTITVPASNPEALAAKSAGGSAGGSAGG [r7_439_JUSTAS] | 0.00655 ± 0.072 | -0.487 ± 0.21 |
| SAGGGMPLEELKDIPENLPPGARVRLRFPETGEEGVYVLREDGGYTVEVPGGVVEAPEDTEVTEIVPSAGGS [r8_162_TrMRF] | 0.414 ± 0.13 | -0.192 ± 0.17 |
| SAGGSAGGSAGGGMPYPIKTEVEIKKNGPNISTTETVYRPDGTKIETKKYKIPKKELKKKSAGGSAGGSAGG [r7_602_JUSTAS] | 0.154 ± 0.28 | < -1 |
| SAGGSAGGSAGSTTTRTVELPPGTSLEEVRARLEAEGYTGVVITEVERPPGPRLRVTVVGSAGGSAGGSAGG [r11_800_JUSTAS] | 0.293 ± 0.06 | -0.0782 ± 0.22 |
| SAGMIVVPLPLSVEEAPAFARELLEAAEAAGLEVTIRVPDEAVAEAVREAAPPDAPVRIEPLEPGEPVESAG [r5_911_JUSTAS] | 0.58 ± 0.054 | 0.128 ± 0.11 |
| SAGGSAGGSAGEPKIKKKYIIPLKLKDPNTDKVYIANIEVDNKEEVPKIVKKLKDKGYLSSAGGSAGGSAGG [r11_668_TrMRF] | 0.351 ± 0.32 | -0.0903 ± 0.4 |
| SAGGSAGGSAGGAADAKVRLVLRTRTFDAVPGEERELPGDSWVYEVGDKAVALELLADPVSAGGSAGGSAGG [r7_506_TrMRF] | 0.895 ± 0.058 | 0.21 ± 0.083 |
| SAGGSASPVLVELPEGVRVELPPDTMTVTIRLPNGTEVVVPLENPEPPDPAAALARARAVVAALPESAGGSA [r15_748_JUSTAS] | 0.774 ± 0.1 | 0.185 ± 0.11 |
| SAGGSAGGSAGGPWKIKEIETVPEGGKERMTIKIEDDNGKPKKPVHMPPDDLDNLPPDLISAGGSAGGSAGG [r7_263_TrROS] | -0.605 ± 0.24 | < -1 |
| SAGGSAGGSAGMIVVPPEDLENLPPWYSVEPGEDSVTVWDESNPVVVPRDEPALVSPPERSAGGSAGGSAGG [r17_91_JUSTAS] | 0.72 ± 0.079 | -0.136 ± 0.22 |
| SAMEELAKKLKELFPNLEIVSIEEEEVEVEGKKRKVLRIKIKNKNGELLEIEFETPEDKEIAELLKKLLSAG [r14_143_TrROS_Hall] | 5.53 ± 0.15 | > 6 |
| SAGGSAGGSKIKSITIDPEAGKVTIEVDKDTPPKPLPSVKTVEEKNDGYTVTFDVKDDEEILLSAGGSAGGS [r20_37_TrMRF] | 0.416 ± 0.086 | -0.39 ± 0.41 |
| SAGGDYDYEKDPNKYRVKERDKNGKILGEKEVEVKPPPIVIDGLPEEDLQEFQDKFPNIPITINPGAISAGG [r13_235_TrROS] | -0.271 ± 0.5 | < -1 |
| SAGGSAAPPFKVEIETEALPGPVVTRTIKVEPGSTVTIYDPGRDEALTFPVAPGTELVFTFDGTDASAGGSA [r15_224_TrMRF] | 0.849 ± 0.044 | 0.342 ± 0.1 |
| SAMELVLEESTELAEDPTNPGVLVPRTTTRELPVEPPPVVVIGSEENAKKLKKKGEVEVPPSGIILIPLSAG [r14_582_JUSTAS] | 0.517 ± 0.21 | 0.137 ± 0.24 |

| Sequence | folding stability dG unfold [1] [kcal/mol] | folding stability dG unfold [2] [kcal/mol] |
| --- | --- | --- |
| SAGGSAGGSAGGSMEVVETEEPGPGEERIRIVRFKEKTIVTRTPPDGVPTSEELPISELSAGGSAGGSAGGS [r10_1075_JUSTAS] | 0.0261 ± 0.2 | -0.247 ± 0.2 |
| SAGGSAGGSAGGSMKKVEVEIPYSFEGPPTFNPEEIEKKLKEEGINAKIKTKYIPKSKEKSAGGSAGGSAGG [r7_355_JUSTAS] | -0.145 ± 0.39 | -0.321 ± 0.7 |
| SVITANDIKEMRKLGIEPIEHDPDNRYRFKFPRMNQPIEVEVKPVPPPPPIEIPDNMDSPEEADKWQDTFSA [r9_649_TrROS] | 0.565 ± 0.16 | 0.259 ± 0.23 |
| SAGMTPDETVNILVSPDDSPEKVAEIIARHGPLTVTLPGSTREFTSEEEIRALYEQHPEDQVINVTVLSAGG [r19_95_JUSTAS] | -0.0129 ± 0.21 | -0.447 ± 0.28 |
| SAGGSSSTPRIKTSVSSSTTVTPLPGPTTLVTTTTTTTTTNPANGQQLSTTPTTSTTVVTPGTGAALSAGGS [r8_204_JUSTAS] | 0.797 ± 0.053 | 0.314 ± 0.12 |
| SAGGMPDRVRPFPFRAPVLRLDPPEPEEVEVVAFVFPDNRVLALARSPDPGRVLLAVDDGDRVLVADASAGG [r13_117_TrMRF] | 0.12 ± 0.15 | -0.477 ± 0.19 |
| SAGGSMTIDDLKGMPVKEIAKRLGPGYEVNVDPNHGTLTLQHPNYQVTINVSPKDGYVKITEVTPHSAGGSA [r2_470_TrROS] | -0.808 ± 0.32 | < -1 |
| SAGGKITIDVNYNPEENNFRIKITWPNGKEKELPIPMEGMPAEDMRREAREFAQNLNPDGLKEVEIEPSAGG [r13_267_TrROS] | 0.369 ± 0.21 | 0.285 ± 0.43 |
| SAGGPNPKTVEIPSPGTPEDVRARVEELAAELRPRGRPVTVTVTVGSTPRTLALAEVASVPPDATATVGSAG [r5_626_JUSTAS] | -0.933 ± 0.4 | < -1 |
| SAGGSAGGSAGSMVTPVTLERYVYIEPTPDGVERKRVVPVKVKETVTVDAAGNVTTTTEVLLSAGGSAGGSA [r18_284_JUSTAS] | -0.871 ± 0.31 | < -1 |
| SAGGNITPNQAKRQAQEIADWLAQEYQQQNPDMKVKVDVEVDPPDGEIKVDGEWPNGRPMAEITIPVKSAGG [r13_247_TrROS] | -0.0106 ± 0.13 | -0.618 ± 0.24 |
| SAGGSAGGSAGMVIKSPDGRIIEVEEEEEGEKLKIKRITYVGDKYTPSEEEIEVPPVDLKSAGGSAGGSAGG [r11_106_JUSTAS] | -0.201 ± 0.54 | < -1 |
| SADPALEAEARARARAEARARGVERLEFELTREVTRESLVRFPGGELREVVERREVRYRVEVEVPPEAASAG [r14_232_JUSTAS] | 0.963 ± 0.077 | 0.366 ± 0.099 |
| SAGGMKKIKVPDGSEIGSVNPKGGIDYVKVKLPGSGVLVEKAVPKGGKLVIPKNIPVELVEIKDYPLSAGGS [r16_123_TrMRF] | -0.0202 ± 0.12 | -0.366 ± 0.2 |
| SAGGSAMTKKTVVTIPLPPGAEDLSPEEVERRVRDELAAEPARPDVTVEVERLPPEPVVRVTITEASAGGSA [r15_1029_JUSTAS] | 0.0943 ± 0.046 | -0.307 ± 0.2 |
| SAGGSAGGSAGGPVVTETPTTSVVYDPAKGTVTYVTPTVVTFPDGTTTTTVASTTVPLPASAGGSAGGSAGG [r11_308_JUSTAS] | 0.531 ± 0.15 | 0.0838 ± 0.2 |
| SAGGSAGGSAIKIETQGTPEEAREFAKDFANKNPELLENMKIDVITWRPPEPKYTPNGKPKSAGGSAGGSAG [r3_89_TrROS] | -0.104 ± 0.2 | -0.759 ± 0.24 |
| SAGGMRLEHLRNMIKNMPPGMKDVNINQHPGHGNYTFSVENPNKPVSIPFDSPEDQQEIQELAREYVKSAGG [r13_287_TrROS] | 0.19 ± 0.19 | -0.417 ± 0.29 |
| SAGGSAGGSAGGMTITKSPEPDLVTVTLPDASGTTVATLTFSPEVVESDPALVAAAAAATSAGGSAGGSAGG [r17_496_JUSTAS] | 0.516 ± 0.095 | -0.335 ± 0.39 |
| SAGGSAGGSAGGSEEKPLVIPIPAHPDIPAEVVRKAVEPLTGVPIEAVLGDEDTLLVVGSAGGSAGGSAGGS [r4_469_TrMRF] | 0.661 ± 0.022 | 0.187 ± 0.077 |
| SAGGSAENLVRTTRTTEALPDGGTRTTTTTTLPGGLTVVTRPYYDPATGTTATTTTTLAPDETVTDSAGGSA [r15_917_JUSTAS] | 0.447 ± 0.05 | -0.0377 ± 0.16 |
| SAGGSAGGSAGGRTYRLTLTRPDGRPLTFEVPTDTAPEHVELLKSLFPDEEIEADISDVESAGGSAGGSAGG [r7_349_TrMRF] | 0.491 ± 0.22 | -0.652 ± 0.46 |
| SAGEPNKIKVKVKIRMWMPRKDPDGQQAEPHPMPMTFEYKAPWEDAKNIIDSMPPGMQIDKIDKIEPLSAGG [r19_114_TrROS] | 0.226 ± 0.3 | 0.109 ± 0.29 |
| SAGMKIKVPFKAEVAPGAKPVKVEVWLGDGPPVATARLYYKVPGEEKTEVALIPIDPSTGKVTVFVKPGSAG [r5_136_TrMRF] | 0.592 ± 0.26 | 0.0709 ± 0.32 |

Reference: the supplement of paper PMC12764529
